Legend:
[1] = In gel overlay activity assay (PMS/NBT) using sorbitol as substrate; format: biochemical; details: native gel
Description: b) In gel overlay activity assay (PMS/NBT) using sorbitol as substrate.
The cell lysates were fractionated on a native gel that was further tested in an in-gel overlay activity assay using sorbitol as the substrate and an assay based on the PMS mediated reduction of NBT. […] The PMS/NBT is a diagnostic assay for flavoproteins where PMS=phenazine methosulfate is a redox mediator which is reduced by reduced FAD.

[2] = cited from earlier work

B1: sorbitol oxidase from Streptomyces species H-7775: sorbitol oxidase of Streptomyces sp. H-7775, SEQ ID NO 1, 420 amino acids (protein)
chain: MTPAEKNWAGNITFGAKRLCVPRSVRELRETVAASGAVRPLGTRHSFNTVADTSGDHVSLAGLPRVVDIDVPGRAVSLSAGLRFGEFAAELHARGLALANLGSLPHISVAGAVATGTHGSGVGNRSLAGAVRALSLVTADGETRTLRRTDEDFAGAVVSLGALGVVTSLELDLVPAFEVRQWVYEDLPEATLAARFDEVMSAAYSVSVFTDWRPGPVGQVWLKQRVGDEGARSVMPAEWLGARLADGPRHPVPGMPAGNCTAQQGVPGPWHERLPHFRMEFTPSNGDELQSEYFVARADAVAAYEALARLRDRIAPVLQVSELRTVAADDLWLSPAHGRDSVAFHFTWVPDAAAVAPVAGAIEEALAPFGARPHWGKVFSTAPEVLRTLYPRYADFEELVGRHDPEGTFRNAFLDRYFRR
modifications: Streptomyces sp. H7775
For B1, the “activity towards sorbitol (stained band)” value [1] is listed as “has activity towards sorbitol”, the “pH range of stability” value ([2]; 24 hours at 30° C.) is listed as 7.5-10 pH and the optimum temperature ([2]; at pH 7.5) is listed as 50 °C.

Reference: patent US20090142281A1, “Composition Comprising A Coupled Enzyme System” (priority 2005, published 2009)
